For this experiment, the target named is Flag-actin-WT, P60709. Put plainly: co-immunoprecipitation with anti-Flag magnetic beads, competition with purified MRTF-A (2-261), immunoblot quantification. The settings on record: chain shown with the change; NIH 3T3 cells co-expressing Flag-actin-WT and myc-JMY constructs, serum-starved for 24 h post transfection; purified MRTF-A (2-261) added to the lysates prior …; parent: est. 0.97; read off a plot. (Immunoblotting shows a protein as a band on a membrane.)

B1: myc-JMY-f.l., Q9QXM1 R961E (protein)
chain: MSFALEETLESDWVAVRPHVFDEREKHKFVFIVAWNEIEGKFAITCHNRTAQRQRSGSREQAGTPASDGSRGPGSPAARGRSEAAASATAALRSPGPRKSQAWAEGGSPRSARSLKGDPPRGPAGRGPESPLRSPARAKASPLRRSAESRDAIASATPVPPAPPVPPVSSVRVVSASGAVSEEIEVLEMVREDEAPQPLPDSEQPPSAAELESSAEECSWAGLFSFQDLRAVHQQLCSVNSQLEPCLPVFPEEPSGMWTVLFGGAPEMTEQEIDALCYQLQVYLGHGLDTCGWKILSQVLFTETDDPEEYYESLSELRQKGYEEVLQRARRRIQELLDKHKTIESMVELLDLYQMEDEAYSSLAEATTELYQYLLQPFRDMRELAMLRRQQIKISMENDYLGPRRIESLQKEDADWQRKAHMAVLSIQDLTVKYFEITAKAQKAVYDRMRADQKKFGKASWAAAAERMEKLQYAVSKETLQMMRAKEICLEQKKHALKEEMQSLQGGTEAIARLDQLESDYYDLQLQLYEVQFEILKCEELLLTAQLESIKRLISEKRDEVVYYDTYESMEAMLEKEEMAASVHAQREELQKLQQKARQLEARRGRVSAKKAYLRNKKEICIAKHHEKFQQRFQSEDEYRAHHTIQIKRDKLHDEEERKSAWVSQERQRTLDRLRTFKQRYPGQVILKSTRLRVAHSRRKSTASPVPCEEQCHSLPTVLQGQEKTEVGGGGSQLGPSQTAEPQSLVQLEDTSSEQLESTSLPPRAVVSSELPPPQSAPLLTSIDPKPCSVTIDPLPPPLPPTPPPPPPPPPPPPPPLPVAKDNGASTTAETLEKDALRTEGNERSIPKSASAPAAHLFDSSQLVSARKKLRKTVEGLQRRRVSSPMDEVLASLKRGSFHLKKVEQRTLPPFPDEDDSNNILAQIRKGVKLKKVQKEVLRESFTLLPDTDPLTRSIHEALREIKEASPESEDEEEALPCTDWEN
As to B1, the other: relative amount of MRTF-A bound to Flag-actin (competition by co-expressed JMY) worked out at 0.59.

The record behind these values is article PMC6249979.
